The values below come from article PMC5120349, “Reconstitution of Targeted Deadenylation by the Ccr4-Not Complex and the YTH Domain Protein Mmi1”.

The Kd is the equilibrium constant for the complex coming apart.

T1: Mmi1 YTH domain (Schizosaccharomyces pombe, UniProt O74958 282-488)
T1 sequence: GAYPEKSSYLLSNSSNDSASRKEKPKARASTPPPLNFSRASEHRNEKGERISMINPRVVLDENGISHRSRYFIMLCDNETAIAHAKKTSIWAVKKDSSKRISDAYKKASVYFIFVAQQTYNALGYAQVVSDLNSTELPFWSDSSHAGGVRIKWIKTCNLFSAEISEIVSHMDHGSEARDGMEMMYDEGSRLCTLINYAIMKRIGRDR

B1: Mmi1 (recombinant, S. pombe) (natural protein)
chain: MSNTNFSTSRSSKSIPELPNLEALRSLWPPPSLNESGDTRSVWTTHTGEPVASSVLSTSGSNNFSSPLKRPAPESHDAPIGRRLMVDDPRLIKHGKYDFSRHCTDYGHSYEWPYFRSLRRESMLYHTSGSYPESQPPYSSYSTDAPHYYHAGSESSAYYDSRSRLHGIQPPPKRRTLSPPPRRLADPVVVGSSRYVEEEVYRRPPYTLASEVPSSASAYQAGYSSYPVRSSPQLSHEDTRHGIASSGSTRYPFVPANTRASHSPSLLEPYAHSLPSSVAPVGAYPEKSSYLLSNSSNDSASRKEKPKARASTPPPLNFSRASEHRNEKGERISMINPRVVLDENGISHRSRYFIMLCDNETAIAHAKKTSIWAVKKDSSKRISDAYKKASVYFIFVAQQTYNALGYAQVVSDLNSTELPFWSDSSHAGGVRIKWIKTCNLFSAEISEIVSHMDHGSEARDGMEMMYDEGSRLCTLINYAIMKRIGRDR

Chain of recombinant S. pombe Ccr4-Not complex (seven core subunits) (S. pombe) (O74856 whole entry, looked up, tested part not stated, one chain of several): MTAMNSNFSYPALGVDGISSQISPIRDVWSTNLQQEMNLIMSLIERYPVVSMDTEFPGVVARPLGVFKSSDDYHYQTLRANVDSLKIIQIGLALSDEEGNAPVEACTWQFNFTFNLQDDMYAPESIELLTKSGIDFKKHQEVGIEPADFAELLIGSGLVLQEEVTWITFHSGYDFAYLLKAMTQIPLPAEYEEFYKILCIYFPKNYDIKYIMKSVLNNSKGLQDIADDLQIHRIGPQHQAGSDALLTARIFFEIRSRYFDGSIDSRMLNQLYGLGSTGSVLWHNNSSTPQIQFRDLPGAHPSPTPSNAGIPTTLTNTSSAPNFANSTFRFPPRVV

The first series has as its target recombinant S. pombe Ccr4-Not complex (seven core subunits) (S. pombe) (UniProt O74856).
Test: not given
Conditions: not given
Turning to B1, the rate of deadenylation of the rec8^UUAAAC-A30 target RNA by Ccr4-Not with bound Mmi1, against Ccr4-Not without Mmi1 worked out at 5 fold.

A further series concerns the target T1, Mmi1 YTH domain. Briefly: fluorescence polarization; 20 mM HEPES pH 7.5, 100 mM NaCl, 1 mM Mg(OAc)2, 0.1 mM TCEP, 10 nM labeled RNA, 10 min at room temperature; Hill-slope fit. The settings on record: protein: recombinant.
Consider CAGCUCCGCAUCCCUUUCCC (ssRNA) [20-mer unstructured RNA], for which the equilibrium dissociation constant (Kd) worked out at 13900 ± 1600 nM.

Still in this series, the particulars now being: protein: recombinant; label: 3' 6-FAM.
Regarding CUCUUUAACCCUAAAAAGC (ssRNA) [rec8 UUAACC], the Kd came out at 311 ± 13 nM.
Consider CUCUUUACACCUAAAAAGC (ssRNA) [rec8 UUACAC], for which the dissociation constant Kd was found to be 460 ± 25 nM.
For the molecule CUCUUUCUCCCUACAAAGC (ssRNA) [rec8 UUCUCC], the dissociation constant Kd worked out at 1370 ± 140 nM.
As to CUCUUUAAACCUAAAAAGC (ssRNA) [rec8 UUAAAC], the Kd was 226 ± 15 nM.
For CUCUUUAAAGCUAAAAAGC (ssRNA) [rec8 UUAAAG], the Kd came to 231 ± 7 nM.
Same read-out and setting: next, CUCUUUCAACCUAAAAAGC (ssRNA) [rec8 UUCAAC]: 433 ± 33 nM; CUCUUGAAACCUAAAAAGC (ssRNA) [rec8 UGAAAC]: 216 ± 14 nM.
